# Values quoted from earlier work, collected in patent US7338947B2, “Cyclic derivatives as modulators of chemokine receptor activity” (Bristol-Myers Squibb Co., priority 2003, dated 2008).
# Test system: MCP-1 expression in peripheral blood mononuclear cells
# Details: human multiple sclerosis, effective therapy
molecule,measurement,value
"interferon b-1b: interferon b-1b, effective therapy in human multiple sclerosis (protein, UniProt P01574 22-187, looked up, variant C17S, interferon beta-1b) Interferon beta: MSYNLLGFLQRSSNFQSQKLLWQLNGRLEYCLKDRMNFDIPEEIKQLQQFQKEDAALTIYEMLQNIFAIFRQDSSSTGWNETIVENLLANVYHQINHLKTVLEEKLEKEDFTRGKLMSSLHLKRYYGRILHYLKAKEYSHCAWTIVRVEILRNFYFINRLTGYLRN",MCP-1 expression in peripheral blood mononuclear cells,reduces MCP-1 expression
